In patent publication US20050214802A1 (Genentech, published 2005):
Each block holds one molecule with its values, some of them ahead of it.

What was measured:
[1] = target: ΔCARD human caspase 9 (lacking the first 138 residues) with Ala substitutions at residues 304 to 306 (human) (UniProt P55211); test: Ki(app), inhibition of ΔCARD caspase-9 hydrolysis of Ac-LEHD-AFC
[2] = target: ΔCARD human caspase 9 (lacking the first 138 residues) with Ala substitutions at residues 304 to 306 (human) (UniProt P55211); test: caspase-9 inhibition assay, ratio of Ki(app)
[3] = target: ΔCARD human caspase 9 (lacking the first 138 residues) with Ala substitutions at residues 304 to 306 (human) (UniProt P55211); test: Ki(app), inhibition of ΔCARD caspase-9 hydrolysis of Ac-LEHD-AFC; too low to measure accurately
[4] = target: T1, caspase-9 zymogen precursor (overexpressed in 293T cells) (UniProt P55211 1-416); test: co-immunoprecipitation (anti-Flag) from 293T lysates, Western blot with anti-caspase-9
T1 sequence (looked up): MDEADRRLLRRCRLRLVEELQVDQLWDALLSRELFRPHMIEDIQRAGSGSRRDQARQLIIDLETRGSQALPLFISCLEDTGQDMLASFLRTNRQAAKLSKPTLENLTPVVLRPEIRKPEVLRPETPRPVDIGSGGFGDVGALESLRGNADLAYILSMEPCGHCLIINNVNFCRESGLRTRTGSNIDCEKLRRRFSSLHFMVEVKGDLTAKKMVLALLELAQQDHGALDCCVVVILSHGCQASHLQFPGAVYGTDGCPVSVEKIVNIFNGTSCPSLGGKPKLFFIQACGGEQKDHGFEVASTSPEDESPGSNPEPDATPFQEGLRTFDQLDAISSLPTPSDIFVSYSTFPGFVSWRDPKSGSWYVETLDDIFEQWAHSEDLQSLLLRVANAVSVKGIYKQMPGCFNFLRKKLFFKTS
Procedure: 293T cells were transiently transfected with caspase-9 and Flag-tagged BIR domain proteins or vector. After 40 h, cells were lysed in NP40 lysis buffer (120 mM Tris, 150 mM NaCl, 1% NP-40, 1 mM DTT and protease inhibitor cocktail) and lysates immunoprecipitated (IP) with anti-Flag antibody. Samples were then Western blotted with anti-caspase-9 and anti-Flag antibodies. […] When overexpressed, caspase-9 undergoes autocatalytic processing and it is the processed form that physically interacts with XIAP and ML-IAP BIR domains.

[5] = target: ΔCARD human caspase 9 (lacking the first 138 residues) with Ala substitutions at residues 304 to 306 (human) (UniProt P55211); test: Ki(app), caspase-9 inhibition; upper end tied by Table 7 to MLBIR-Q (4,600 nM)
[6] = target: ΔCARD human caspase 9 (lacking the first 138 residues) with Ala substitutions at residues 304 to 306 (human) (UniProt P55211); test: caspase-9 inhibition assay, ratio of Ki(app); remark: listed apart in the source
[7] = target: ΔCARD human caspase 9 (lacking the first 138 residues) with Ala substitutions at residues 304 to 306 (human) (UniProt P55211); test: Ki(app), caspase-9 inhibition; lower end tied by Table 7 to full-length ML-IAP (3,200 nM)

Ki [1]: 962 nM | fold better at inhibiting caspase-9 than MLBIR-Q [2]: 5 fold | fold less potent at inhibiting caspase-9 than XIAP-BIR3 [2]: 70 fold
Molecule: MLXBIR3 (ML-IAP-BIR with amino acids 160-179 replaced by amino acids 336-348 of XIAP-BIR3) (from UniProt Q96CA5 63-159; P98170 336-348)

Ki [3]: < 1 nM
Molecule: MLXBIR3SG (ML-IAP chimera: ML-IAP-BIR framework with XIAP-BIR3 residues 336-348 in place of 160-179 and S150G)

Ki [1]: 13 nM
Molecule: XIAP-BIR3 (third BIR of XIAP, residues 252-348) (from UniProt P98170 252-348)

binding result [4]: no binding
B1: Flag-tagged ML-IAP-BIR (expressed in 293T cells) (other, human, UniProt Q96CA5 63-179, looked up)
chain: TEEEEEEGAGATLSRGPAFPGMGSEELRLASFYDWPLTAEVPPELLAAAGFFHTGHQDKVRCFFCYGGLQSWKRGDDPWTEHAKWFPSCQFLLRSKGRDFVHSVQETHSQLLGSWDP
notes: domain: BIR; also called MLBIR; wild-type ML-IAP-BIR; not shown: Flag tag

Ki [1]: 4600 nM | Ki [5]: 3000 to 5000 nM
B2: MLBIR-Q (C-terminally truncated variant of ML-IAP-BIR) (protein, human, UniProt Q96CA5 63-172, looked up, not shown: small tags and cut ends)
chain: TEEEEEEGAGATLSRGPAFPGMGSEELRLASFYDWPLTAEVPPELLAAAGFFHTGHQDKVRCFFCYGGLQSWKRGDDPWTEHAKWFPSCQFLLRSKGRDFVHSVQETHSQ

fold lower potency for inhibition of caspase-9 relative to XIAP [6]: 300 fold | Ki [1]: 3200 nM | Ki [7]: 3000 to 5000 nM
B3: full-length ML-IAP with N-terminal His6-tag (protein, human, UniProt Q96CA5 1-298, looked up, not shown: small tags and cut ends)
chain: MGPKDSAKCLHRGPQPSHWAAGDGPTQERCGPRSLGSPVLGLDTCRAWDHVDGQILGQLRPLTEEEEEEGAGATLSRGPAFPGMGSEELRLASFYDWPLTAEVPPELLAAAGFFHTGHQDKVRCFFCYGGLQSWKRGDDPWTEHAKWFPSCQFLLRSKGRDFVHSVQETHSQLLGSWDPWEEPEDAAPVAPSVPASGYPELPTPRREVQSESAQEPGGVSPAEAQRAWWVLEPPGARDVEAQLRRLQEERTCKVCLDRAVSIVFVPCGHLVCAECAPGLQLCPICRAPVRSRVRTFLS
